Values of other authors as cited in patent US20010007853A1, “METHOD FOR ADMINISTERING MONOMERIC INSULIN ANALOGS” (priority 1998, published 2001).

Details: calculated

Substance	Absorption values for proteins delivered through the lungs
glycosylated α1-antitrypsin	48 h
parathyroid hormone (fragment 1-34)	fifteen
